Reference: patent US20260209761, “RNA-GUIDED ENDONUCLEASE SYSTEM AND USE THEREOF IN GENE EDITING” (HARBIN INSTITUTE OF TECHNOLOGY, published 2026)

Target: T1, FbRAD1/ISFba1 (RHS75625.1) (Firmicutes bacterium AM43-11BH)
T1 chain: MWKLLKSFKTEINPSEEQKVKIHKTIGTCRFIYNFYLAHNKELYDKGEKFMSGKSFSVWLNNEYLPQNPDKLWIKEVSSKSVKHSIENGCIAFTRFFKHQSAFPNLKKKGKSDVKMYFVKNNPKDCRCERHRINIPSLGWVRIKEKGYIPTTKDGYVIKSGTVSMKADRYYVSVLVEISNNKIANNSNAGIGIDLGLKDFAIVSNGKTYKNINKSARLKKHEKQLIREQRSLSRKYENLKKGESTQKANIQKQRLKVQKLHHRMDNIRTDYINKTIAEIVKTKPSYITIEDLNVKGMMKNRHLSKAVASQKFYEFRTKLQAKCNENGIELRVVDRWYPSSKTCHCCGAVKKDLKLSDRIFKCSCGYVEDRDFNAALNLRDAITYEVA
Assay: co-purified RNA, degraded by RNase not DNase; about 180 nt; RNA-seq
Details: tags: GST (cleaved by PreScission), C-terminal 6His per expression cassette; stem loop, long hairpin with inner loop and pseudoknot (predicted)

B1: FbRAD1 RAGATH-18-associated RNA (ssRNA)
RNA: CUAAAACGCAAACGUAAGUAUGUACCGAAGGCUAUUUUCGGGAAUUUACGACUAUGGAGUGUACAAGAACUUGUGAGUAGAUAUGAUUUCGGUCAAUCCAAAGCAUACACGAUGAAAUAGUAAGUAAUGUUCGUGAGAACUUACAUUAUCUCGAUGUGAGCAUAUUUAAUCACAUUUUGAGUGGCAG
binding result: binds
